The source of these data is patent publication US20260167721A1.

The target in assay [1] is human CD3 (on the surface of Jurkat wild-type cells and of human Pan T cells) (human) (UniProt P07766). Kind of assay: flow cytometry, control antibody on Jurkat WT cells. (In general: Flow cytometry measures light scatter and fluorescence of single cells or particles in a stream.)
In assay [2] the target is RT3-T3.5 (TCR-KO) cells. Kind of assay: flow cytometry, control antibody on RT3-T3.5 (TCR-KO) negative control cells.
In assay [3] the target is human CD3 (on the surface of Jurkat wild-type cells and of human Pan T cells) (human) (UniProt P07766). Put plainly: flow cytometry, control antibody on human Pan T cells.
For assay [4], the target named is human CD3 (TCR/CD3 complex on the cell surface) (human) (UniProt P07766). Kind of assay: flow cytometry, Pan-T cells, 1 ug/mL.
Assay [5] has the same target. Kind of assay: flow cytometry, Pan-T cells, 10 ug/mL.
Assay [6] deals with Jurkat TCRb knockout cells. Put plainly: flow cytometry on Jurkat KO (TCRb knockout) cells, negative control, antibody at 1 ug/ml.
In assay [7] the target is Jurkat TCRb knockout cells. Put plainly: flow cytometry, Jurkat KO (TCRb knockout) cells, negative control, 1 ug/mL.
The target in assay [8] is CD33 on KILR-HL60 cells (UniProt P20138). Kind of assay: flow cytometry on KILR-HL60 (CD33 expressing) cells, antibody at 1 ug/ml.
Assay [9] addresses Jurkat TCRb knockout cells. Kind of assay: flow cytometry, Jurkat KO (TCRb knockout) cells, negative control, 10 ug/mL.
Assay [10] deals with Jurkat TCRb knockout cells. Put plainly: flow cytometry on Jurkat KO (TCRb knockout) cells, negative control, antibody at 10 ug/ml.
Assay [11] addresses human CD3 (TCR/CD3 complex on the cell surface) (human) (UniProt P07766). Kind of assay: flow cytometry, gMFI Jurkat WT over Jurkat TCRb KO, 1 ug/mL.
The target is the same in assay [12]. Put plainly: flow cytometry, Jurkat WT cells, 1 ug/mL.
The target is the same in assay [13]. Put plainly: flow cytometry, Jurkat WT cells, 10 ug/mL.
Assay [14] deals with CD33 on KILR-HL60 cells (UniProt P20138). Kind of assay: flow cytometry on KILR-HL60 (CD33 expressing) cells, antibody at 10 ug/ml.
Assay [15] has as its target CD3 on Jurkat wild-type cells (UniProt P07766). Put plainly: flow cytometry on Jurkat WT cells, antibody at 10 ug/ml.
Assay [16] has as its target human CD3 (TCR/CD3 complex on the cell surface) (human) (UniProt P07766). Put plainly: flow cytometry, gMFI Jurkat WT over Jurkat TCRb KO, 10 ug/mL.
Assay [17] addresses CD3 on Jurkat wild-type cells (UniProt P07766). Put plainly: flow cytometry on Jurkat WT cells, antibody at 1 ug/ml.
Assay [18] deals with human CD3 (on human Pan-T cells or donor PBMC) (human) (UniProt P07766). Kind of assay: cell-based or functional assay.
Assay [19] addresses RT3-T3.5 (TCR-KO) cells. Put plainly: flow cytometry, isotype control antibody on RT3-T3.5 (TCR-KO) negative control cells.
In assay [20] the target is human CD3 (on the surface of Jurkat wild-type cells and of human Pan T cells) (human) (UniProt P07766). Kind of assay: flow cytometry, isotype control antibody on Jurkat WT cells.
Assay [21] shares this target. Put plainly: flow cytometry, isotype control antibody on human Pan T cells.

Sequence of human CD3 (on human Pan-T cells or donor PBMC) (human) (P07766 23-207, chain 1 of 4): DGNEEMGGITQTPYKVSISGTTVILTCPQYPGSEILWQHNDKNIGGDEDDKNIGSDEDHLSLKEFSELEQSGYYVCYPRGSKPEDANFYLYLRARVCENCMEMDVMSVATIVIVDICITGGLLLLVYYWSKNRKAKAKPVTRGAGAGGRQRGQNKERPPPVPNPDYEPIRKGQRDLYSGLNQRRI
Sequence of human CD3 (on human Pan-T cells or donor PBMC) (human) (P04234 22-171, chain 2 of 4, further chain): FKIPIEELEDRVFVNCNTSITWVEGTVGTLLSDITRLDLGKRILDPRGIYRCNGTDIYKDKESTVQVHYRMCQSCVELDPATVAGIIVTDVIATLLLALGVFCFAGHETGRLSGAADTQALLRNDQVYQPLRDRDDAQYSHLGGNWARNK
Sequence of human CD3 (on human Pan-T cells or donor PBMC) (human) (P09693 23-182, chain 3 of 4, further chain): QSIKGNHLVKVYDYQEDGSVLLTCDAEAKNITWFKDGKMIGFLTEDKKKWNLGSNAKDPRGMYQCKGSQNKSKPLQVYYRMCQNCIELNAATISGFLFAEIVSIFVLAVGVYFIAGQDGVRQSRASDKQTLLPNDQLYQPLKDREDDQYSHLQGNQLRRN
Sequence of human CD3 (on human Pan-T cells or donor PBMC) (human) (P20963 22-164, chain 4 of 4, further chain): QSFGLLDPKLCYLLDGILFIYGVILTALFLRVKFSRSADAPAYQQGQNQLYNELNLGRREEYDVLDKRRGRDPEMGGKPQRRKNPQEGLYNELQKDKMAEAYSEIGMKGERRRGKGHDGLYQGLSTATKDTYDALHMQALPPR
Sequence of human CD3 (on the surface of Jurkat wild-type cells and of human Pan T cells) (human) (P07766 23-207, chain 1 of 4): as the sequence (P07766 23-207, chain 1 of 4) above
Sequence of human CD3 (on the surface of Jurkat wild-type cells and of human Pan T cells) (human) (P09693 23-182, chain 2 of 4, further chain): as the sequence (P09693 23-182, chain 3 of 4, further chain) above
Sequence of human CD3 (on the surface of Jurkat wild-type cells and of human Pan T cells) (human) (P04234 22-171, chain 3 of 4, further chain): as the sequence (P04234 22-171, chain 2 of 4, further chain) above
Sequence of human CD3 (on the surface of Jurkat wild-type cells and of human Pan T cells) (human) (P20963 22-164, chain 4 of 4, further chain): as the sequence (P20963 22-164, chain 4 of 4, further chain) above
Sequence of CD3 on Jurkat wild-type cells (P07766 23-207, chain 1 of 3): as the sequence (P07766 23-207, chain 1 of 4) above
Sequence of CD3 on Jurkat wild-type cells (P04234 22-171, chain 2 of 3, further chain): as the sequence (P04234 22-171, chain 2 of 4, further chain) above
Sequence of CD3 on Jurkat wild-type cells (P09693 23-182, chain 3 of 3, further chain): as the sequence (P09693 23-182, chain 3 of 4, further chain) above
Sequence of human CD3 (TCR/CD3 complex on the cell surface) (human) (P07766 23-207, chain 1 of 4): as the sequence (P07766 23-207, chain 1 of 4) above
Sequence of human CD3 (TCR/CD3 complex on the cell surface) (human) (P09693 23-182, chain 2 of 4, further chain): as the sequence (P09693 23-182, chain 3 of 4, further chain) above
Sequence of human CD3 (TCR/CD3 complex on the cell surface) (human) (P04234 22-171, chain 3 of 4, further chain): as the sequence (P04234 22-171, chain 2 of 4, further chain) above
Sequence of human CD3 (TCR/CD3 complex on the cell surface) (human) (P20963 22-164, chain 4 of 4, further chain): as the sequence (P20963 22-164, chain 4 of 4, further chain) above
Sequence of CD33 on KILR-HL60 cells (P20138 18-364 limits assumed): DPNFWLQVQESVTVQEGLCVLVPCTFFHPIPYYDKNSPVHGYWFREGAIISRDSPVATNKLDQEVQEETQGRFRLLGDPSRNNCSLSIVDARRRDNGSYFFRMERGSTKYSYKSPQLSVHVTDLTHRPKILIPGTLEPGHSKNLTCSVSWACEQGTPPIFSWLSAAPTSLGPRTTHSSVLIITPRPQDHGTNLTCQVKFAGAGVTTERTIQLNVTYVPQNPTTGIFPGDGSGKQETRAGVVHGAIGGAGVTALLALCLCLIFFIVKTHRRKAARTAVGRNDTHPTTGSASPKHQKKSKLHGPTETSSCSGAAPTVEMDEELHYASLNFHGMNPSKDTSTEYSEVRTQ
Sequence of Gemtuzumab (antibody) (HC): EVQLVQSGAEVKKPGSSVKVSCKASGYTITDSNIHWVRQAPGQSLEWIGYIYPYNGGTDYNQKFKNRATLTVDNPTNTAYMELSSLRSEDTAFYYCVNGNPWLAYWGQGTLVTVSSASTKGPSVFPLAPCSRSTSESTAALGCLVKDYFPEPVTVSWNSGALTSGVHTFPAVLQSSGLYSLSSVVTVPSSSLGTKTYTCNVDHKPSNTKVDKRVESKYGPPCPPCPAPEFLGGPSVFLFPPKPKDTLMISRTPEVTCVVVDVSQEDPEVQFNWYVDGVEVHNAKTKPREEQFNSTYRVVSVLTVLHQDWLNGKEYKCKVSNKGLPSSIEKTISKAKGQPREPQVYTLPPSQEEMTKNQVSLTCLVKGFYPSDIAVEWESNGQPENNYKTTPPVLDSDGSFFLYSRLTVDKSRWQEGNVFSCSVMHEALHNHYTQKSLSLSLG
Sequence of Gemtuzumab (antibody) (LC): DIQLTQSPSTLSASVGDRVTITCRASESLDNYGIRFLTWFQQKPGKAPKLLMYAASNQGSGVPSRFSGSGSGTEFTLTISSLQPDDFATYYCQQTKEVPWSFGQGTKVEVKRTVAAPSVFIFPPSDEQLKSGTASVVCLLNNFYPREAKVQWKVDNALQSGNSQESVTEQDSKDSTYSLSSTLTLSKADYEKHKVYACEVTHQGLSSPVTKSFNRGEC

As to UCHT1 (antibody), the values for the gMFI in assay [1], in assay [2] and in assay [3] were 102000 gMFI, 5410 gMFI and 359000 gMFI, respectively.

hIgG1 (antibody): the % Positive in assay [4] and in assay [5] was 0.8% each time. Moreover, the gMFI amounted to 1860 gMFI in [4]; 1780 gMFI in assay [5]; 2020 gMFI in assay [7]; 1860 gMFI in [9]; 1770 gMFI in assay [12]; 1740 gMFI in assay [13]. Also, the flow cytometry signal in assay [6] was 2830; in assay [8], 34300; in assay [10], 2620; in assay [14], 30200; in [15], 2390; in assay [17], 2700. Also, the Jurkat WT/KO (Fold) in [11] and in [16] was 0.9 fold in each case.

As to OKT3 (antibody), the % Positive in assay [4] was found to be 99.6%; in assay [5], 99.9%. Further, the gMFI in [4] turned out to be 603000 gMFI; in assay [5], 394000 gMFI; in assay [7], 4900 gMFI; in assay [1], 72300 gMFI; in [9] it was 4070 gMFI; in assay [2], 4220 gMFI. For the same substance, the gMFI came out at 54000 gMFI in [12], 45200 gMFI in assay [13] and 300000 gMFI in assay [3]. Also, the flow cytometry signal in assay [6] came to 5180; in assay [8], 14800; in [10] it was 3680; in assay [14] it was 11600; in assay [15], 35800; in assay [17], 82100. Also, the Jurkat WT/KO (Fold) in assay [11] is 11 fold; in [16], 11.1 fold.

In [18], Gemtuzumab (antibody) showed a Cytokine Release Assay (IFNγ), Donor 0, gMFI max of 5340 gMFI; a Cytokine Release Assay (IFNγ), Donor 1, gMFI max of 4630 gMFI; a Cytokine Release Assay (IFNγ), Donor 2, gMFI max of 3580 gMFI; a Cytokine Release Assay (IFNγ), Donor 3, gMFI max of 4480 gMFI.

Take Isotype Control (antibody): the figures for the gMFI in [19], in assay [20] and in [21] were 1820 gMFI, 1710 gMFI and 4370 gMFI, respectively.

For the substance SP34 (antibody), the results for the gMFI in [1], in assay [2] and in assay [3] were 114000 gMFI, 7160 gMFI and 333000 gMFI, respectively.
